Measurements published in patent US20230302148A1, “PHARMACEUTICAL COMPOSITION COMPRISING LONG-ACTING CONJUGATE OF TRIPLE GLUCAGON/GLP-1/GIP RECEPTOR AGONIST” (HANMI PHARM. CO., LTD., priority 2020, published 2023).
Bridges are numbered along the chain shown (N, C = ends). Where no end group is shown, it is not given here. [ ]: non-standard residue; d: D form. The star is where a group is joined. Acetyl(2-(4-imidazolyl)) = O=C(Cc1c[nH]cn1)*; Aib = CC(C)(N)C(=O)O

T1: human GIP receptor (human, UniProt P48546 22-466)
T1 sequence (looked up): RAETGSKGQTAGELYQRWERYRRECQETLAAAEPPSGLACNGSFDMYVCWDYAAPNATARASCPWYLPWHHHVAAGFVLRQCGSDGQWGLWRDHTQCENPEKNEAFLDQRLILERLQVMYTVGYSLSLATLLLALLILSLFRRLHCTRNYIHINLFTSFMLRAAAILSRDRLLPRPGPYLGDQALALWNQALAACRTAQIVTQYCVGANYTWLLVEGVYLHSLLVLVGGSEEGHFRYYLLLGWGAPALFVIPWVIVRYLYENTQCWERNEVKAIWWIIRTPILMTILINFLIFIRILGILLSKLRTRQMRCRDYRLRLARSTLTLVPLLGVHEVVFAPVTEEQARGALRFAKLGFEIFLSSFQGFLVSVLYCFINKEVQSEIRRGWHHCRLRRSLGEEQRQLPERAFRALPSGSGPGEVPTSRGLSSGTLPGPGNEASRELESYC


Key:
Test in all cases: cell-based or functional assay
human GCG receptor = human GCG receptor (human, UniProt P47871 26-477)
human GCG receptor, sequence (P47871 26-477): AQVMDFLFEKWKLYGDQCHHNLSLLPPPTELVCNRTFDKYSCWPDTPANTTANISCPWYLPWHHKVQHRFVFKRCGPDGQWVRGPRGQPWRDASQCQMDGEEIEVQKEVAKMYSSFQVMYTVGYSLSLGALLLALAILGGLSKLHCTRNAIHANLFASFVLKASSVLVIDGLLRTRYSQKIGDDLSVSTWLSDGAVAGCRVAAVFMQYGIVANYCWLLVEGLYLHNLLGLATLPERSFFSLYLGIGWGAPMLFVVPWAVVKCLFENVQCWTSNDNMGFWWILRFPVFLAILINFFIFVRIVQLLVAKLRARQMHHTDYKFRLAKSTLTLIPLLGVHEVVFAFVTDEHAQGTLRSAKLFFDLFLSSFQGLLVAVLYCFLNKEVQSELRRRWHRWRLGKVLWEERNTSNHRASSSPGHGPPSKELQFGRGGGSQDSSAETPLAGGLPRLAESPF

human GLP-1 receptor = human GLP-1 receptor (human, UniProt P43220 24-463)
human GIP receptor = target: T1, human GIP receptor

Binder	In vitro activity relative to native peptide (%) vs. Glucagon (human GCG receptor) [%]	In vitro activity relative to native peptide (%) vs. GLP-1 (human GLP-1 receptor) [%]	In vitro activity relative to native peptide (%) vs. GIP (human GIP receptor) [%]
Y[Aib]QGTFTSDCSKYLDERAAKDFVQWLLDHHPSSGQPPPS (bridge 16-20) [triple agonist of SEQ ID NO: 72]	1	11.5	1.6
[Acetyl(2-(4-imidazolyl))][Aib]QGTFTSDYSKYLDECRAKEFVQWLLDHHPSSGQPPPS (bridge 16-20; not fully specified) [triple agonist of SEQ ID NO: 73]	5.4	22.6	3
H[Aib]QGTFTSDVSKYLDGQAAQEFVAWLLKGC [triple agonist of SEQ ID NO: 8]	0.1	14.2	< 0.1
[Acetyl(2-(4-imidazolyl))][Aib]QGTFTSDYSKCLDEKRAKEFVQWLLDHHPSSGQPPPS (bridge 16-20; not fully specified) [triple agonist of SEQ ID NO: 74]	0.9	12.9	1
Y[Aib]QGTFTSDYSKYLDEKAAKEFVQWLLDHHPSSGQPPPSC (bridge 16-20) [triple agonist of SEQ ID NO: 75]	8.5	35.1	18
Y[Aib]QGTFTSDYSKYLDEKRAKDFVQWLLDHHPSSGQPPPSC (bridge 16-20) [triple agonist of SEQ ID NO: 76]	47.6	10.3	11.7
Y[Aib]QGTFTSDYSKYLDEKAAKDFVQWLLDHHPSSGQPPPSC (bridge 16-20) [triple agonist of SEQ ID NO: 77]	12.2	38.7	35.5
H[Aib]QGTFTSDYSKYLDEKRQKEFVQWLLDTKC (bridge 16-20) [triple agonist of SEQ ID NO: 78]	14	51	0.12
H[Aib]EGTFTSDYSIAMDEIHQKDFVNWLLAQKC (bridge 16-20) [triple agonist of SEQ ID NO: 79]	4.9	41.5	1.4
H[Aib]EGTFTSDYSIAMDEIHQKDFVDWLLAEKC (bridge 16-20) [triple agonist of SEQ ID NO: 80]	0	8.1	0.1
{Acetyl(2-(4-imidazolyl))}-[Aib]QGTFTSDYSKYLDEKRQKEFVQWLLNTC (bridge 15-19) [triple agonist of SEQ ID NO: 81]	0.3	7.8	< 0.1
{Acetyl(2-(4-imidazolyl))}-[Aib]QGTFTSDYSKYLDEKRQKEFVQWLLDTC (bridge 15-19) [triple agonist of SEQ ID NO: 82]	1.1	9.5	< 0.1
{Acetyl(2-(4-imidazolyl))}-[Aib]EGTFTSDYSIAMDEIHQKDFVNWLLAQC (bridge 15-19) [triple agonist of SEQ ID NO: 83]	1.3	47.3	0.4
H[Aib]QGTFTSDVSKYLDGQAAQEFVAWLLAGC [triple agonist of SEQ ID NO: 9]	0.13	32.1	< 0.1
{Acetyl(2-(4-imidazolyl))}-[Aib]EGTFTSDYSIAMDEIHQKDFVDWLLAEC (bridge 15-19) [triple agonist of SEQ ID NO: 84]	< 0.1	4.2	< 0.1
{Acetyl(2-(4-imidazolyl))}-[Aib]QGTFTSDYSIAMDEIHQKDFVNWLLAQC (bridge 15-19) [triple agonist of SEQ ID NO: 85]	< 0.1	4.3	0.3
{Acetyl(2-(4-imidazolyl))}-[Aib]QGTFTSDYSKYLDEKRQKEFVNWLLAQC (bridge 15-19) [triple agonist of SEQ ID NO: 86]	0.4	28.4	0.2
{Acetyl(2-(4-imidazolyl))}-[Aib]QGTFTSDYSIAMDEIHQKDFVNWLLNTC (bridge 15-19) [triple agonist of SEQ ID NO: 87]	< 0.1	0.9	< 0.1
{Acetyl(2-(4-imidazolyl))}-[Aib]QGTFTSDYSKYLDEKRQKEFVQWLLNTKC (bridge 15-19) [triple agonist of SEQ ID NO: 88]	0.3	9.6	< 0.1
{Acetyl(2-(4-imidazolyl))}-[Aib]QGTFTSDYSKYLDEKRQKEFVQWLLDTKC (bridge 15-19) [triple agonist of SEQ ID NO: 89]	0.7	7.1	< 0.1
{Acetyl(2-(4-imidazolyl))}-[Aib]EGTFTSDYSIAMDEIHQKDFVNWLLAQKC (bridge 15-19) [triple agonist of SEQ ID NO: 90]	< 0.1	7.4	< 0.1
{Acetyl(2-(4-imidazolyl))}-[Aib]EGTFTSDYSIAMDEIHQKDFVDWLLAEKC (bridge 15-19) [triple agonist of SEQ ID NO: 91]	16.8	31.9	0.3
{Acetyl(2-(4-imidazolyl))}-[Aib]QGTFTSDYSIAMDEIHQKDFVNWLLAQKC (bridge 15-19) [triple agonist of SEQ ID NO: 92]	< 0.1	0.8	0.4
{Acetyl(2-(4-imidazolyl))}-[Aib]QGTFTSDYSKYLDEKRQKEFVNWLLAQKC (bridge 15-19) [triple agonist of SEQ ID NO: 93]	0.3	5.7	0.7
H[Aib]QGTFTSDVSKYLDGQAAQEFVAWLLAGGGPSSGAPPPSC [triple agonist of SEQ ID NO: 10]	< 0.1	46	< 0.1
{Acetyl(2-(4-imidazolyl))}-[Aib]QGTFTSDYSIAMDEIHQKDFVNWLLNTKC (bridge 15-19) [triple agonist of SEQ ID NO: 94]	< 0.1	0.5	< 0.1
Y[Aib]QGTFTSDYSKYLDEKRAKEFVQWLLCHHPSSGQPPPS (bridge 16-20) [triple agonist of SEQ ID NO: 95]	0.4	2.1	< 0.1
Y[Aib]QGTFTSDYSKYLDEKRAKEFVQWLLDHCPSSGQPPPS (bridge 16-20) [triple agonist of SEQ ID NO: 96]	195	34.4	5.2
